In article PMC3699631, “Posttranslational Modifications of the Histone 3 Tail and Their Impact on the Activity of Histone Lysine Demethylases In Vitro” (PLoS ONE, 2013):
Entries after “also recorded” stand apart in the source; their conditions may differ.

Target: T1, human FL-KDM4C (Homo sapiens, UniProt Q9H3R0)
T1 construct: along with the full length FL- KDM4C and FL-KDM4A using various synthetic histone tail peptides as substrates; His6 (N); FLAG (N); made in house; host or cells: High Five (Trichoplusia ni) insect cells, baculovirus
T1 sequence (Q9H3R0 1-1056): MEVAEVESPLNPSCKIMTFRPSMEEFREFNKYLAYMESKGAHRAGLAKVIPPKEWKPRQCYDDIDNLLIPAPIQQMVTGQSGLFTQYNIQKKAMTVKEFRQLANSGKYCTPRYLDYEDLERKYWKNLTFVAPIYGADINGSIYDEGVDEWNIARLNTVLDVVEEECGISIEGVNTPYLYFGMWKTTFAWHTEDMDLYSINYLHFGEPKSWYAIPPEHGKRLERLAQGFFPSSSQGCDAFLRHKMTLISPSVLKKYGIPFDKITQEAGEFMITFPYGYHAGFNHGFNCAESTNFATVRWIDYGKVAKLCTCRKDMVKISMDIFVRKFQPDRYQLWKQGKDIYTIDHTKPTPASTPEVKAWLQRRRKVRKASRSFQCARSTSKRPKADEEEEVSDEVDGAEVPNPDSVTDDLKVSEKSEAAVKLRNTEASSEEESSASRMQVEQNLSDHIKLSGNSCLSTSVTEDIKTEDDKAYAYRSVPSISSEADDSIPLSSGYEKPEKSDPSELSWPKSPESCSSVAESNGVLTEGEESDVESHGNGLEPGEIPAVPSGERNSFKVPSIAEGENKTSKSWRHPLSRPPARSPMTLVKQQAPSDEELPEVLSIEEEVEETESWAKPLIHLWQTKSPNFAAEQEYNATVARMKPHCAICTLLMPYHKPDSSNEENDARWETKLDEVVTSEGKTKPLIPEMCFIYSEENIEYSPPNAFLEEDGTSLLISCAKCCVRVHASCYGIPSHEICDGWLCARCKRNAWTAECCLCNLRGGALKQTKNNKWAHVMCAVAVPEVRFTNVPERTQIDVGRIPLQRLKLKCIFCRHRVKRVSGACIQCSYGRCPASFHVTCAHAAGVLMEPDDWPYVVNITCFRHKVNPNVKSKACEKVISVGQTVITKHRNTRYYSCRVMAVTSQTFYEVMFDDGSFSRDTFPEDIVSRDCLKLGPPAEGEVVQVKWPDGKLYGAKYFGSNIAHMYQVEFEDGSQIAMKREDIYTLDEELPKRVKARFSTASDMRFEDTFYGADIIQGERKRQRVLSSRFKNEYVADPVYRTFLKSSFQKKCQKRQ
Assay: FDH-assay enzyme kinetics of H3 peptide demethylation, full length KDM4C
Assay type: biochemical
Parameters: key to K m / k cat / k cat /K m: 0 means no demethylation could be detected
Settings: for K m / k cat /K m / demethylation / catalytic activity (in words) / k cat: FDH-assay; for K m: 50 mM HEPES (pH 7.5), 50 mM NaCl, 50 µM FeSO4, 500 µM α-KG, 500 µM ascorbate, 2 mM NAD, substrate 10–1000 µM, NADH fluorescence 15–30 minutes; for K m / k cat: triplicate; for k cat /K m: pH 7.5, triplicate; for k cat: pH 7.5, NADH fluorescence
Experimental: The enzyme kinetics were measured using a Formaldehyde DeHydrogenase Assay (FDH-Assay) and the demethylation of substrates was confirmed when possible by MALDI-TOF-MS, see File S1 for details. The test solution contained 50 mM HEPES (pH 7.5), 50 mM NaCl, 50 µM FeSO4, 500 µM α-KG, 500 µM ascorbate, 2 mM NAD, approximately 0.05 unit of FDH and e.g. 4.88 µM KDM4C (enzyme concentration varied between batches). The reference solution was comprised of the same except substrate. The assay was initiated by adding various concentrations of H3 peptide substrates e.g. H3(1–24)K9me3 (10–1000 µM) and the increase in NADH fluorescence was measured over 15–30 minutes in 30 second intervals. Data analysis and kinetic values were obtained using programs Excel and GraphPad Prism® 5.0. For details, see File S1.
The standard deviations for k cat/K m were calculated using the statistic law of propagation of errors. Standard errors for Michaelis-Menten Kinetics were automatically given in GraphPad Prism®, with a 95% confidence interval. All enzyme kinetic curves were done in triplicate unless otherwise stated.
Test for activity of enzyme using the fluorescence FDH assay, determination of Vmax and Km of enzymes with substrate, expression and purification of cc-KDM4A and cc-KDM4C software and parameters for the FDH coupled assay, see Lohse et al.^21
Recombinant baculoviridae encoding the full Open Reading Frame (ORF) of FL-KDM4A and FL-KDM4C were generously donated from the Biotech Research and Innovation Centre (BRIC), University of Copenhagen, Denmark. Recombinant protein was expressed by adding High Titer Stocks to High Five (Trichopulsia ni) insect cells in suspension culture. The cell cultures were harvested by centrifugation after ~ 60 hours and the cells were resuspended in hypotonic buffer (25 mM Hepes-KOH, pH 7.7, 1.5 mM MgCl, 5 mM KCl) supplemented with one protease inhibitor cocktail tablet per 500 ml expression (Roche, EDTA-free). The resuspended cells were frozen at -20 °C.
Both proteins were purified by IMAC using Talon FF (Clontech) cobalt resin according to the following protocol; resuspended cells were thawed on ice, 100 ml hypotonic buffer was added per 500 ml expression volume and the cells were incubated with stirring for 30 min. at 4 °C, followed by a brief (30 s per 500 ml culture volume) sonication. β-mercaptoethanol (BME, 2 mM final concentration), Triton X-100 (0.2 % final concentration) and NaCl (300 mM final concentration) were added and the cell suspension was stirred for another 30 min at 4 °C. The lysate was cleared by centrifugation at 50.000 g for 60 minutes. The cleared lysates were adjusted to 5 mM imidazole and incubated with Talon resin (1 ml /500 ml expression) for 60 minutes. The resin was allowed to sediment, the lysate removed and the resin was transferred to PD-10 gravity flow columns (GE Healthcare). The resin was washed with 10 column volumes of binding buffer (50 mM Hepes-KOH, pH 7.7, 300 mM NaCl, 5 mM imidazole, 10% glycerol, 0.05 % Triton X-100, 2 mM BME) and eluted with 2 x 2.5 ml elution buffer (50 mM Hepes-KOH, pH 7.7, 300 mM NaCl, 100 mM imidazole, 10 % glycerol, 0.05 % Triton X-100, 2 mM BME). Each eluted fraction has its buffer changed to 50 mM Hepes pH 7.5, 300 mM NaCl, 10 % glycerol using a PD-10 desalting column. The protein was concentrated to 6-7 mg/ml (FL-KDM4A) or 10-12 mg/ml (FL-KDM4C). Despite the buffer change it is likely that small amounts of Triton X-100 remained in the protein samples. Triton X-100 has a significant absorbance at 280 nm, so the protein concentration was determined by Bradford assay using a BSA standard curve. The protein purity was approximately 70 % as judged from SDS-PAGE. The concentrated protein was aliquoted and stored at -80 °C until assays were performed.
The standard deviations for kcat/ Km were calculated using the statistic law of propagation of errors. […]

[1] = SD by propagation of errors, unit: (min^−1 * µM^−1) * 10^3

Substance | K m | k cat /K m [1] | k cat /K m (figures) | demethylation / catalytic activity (in words) | k cat | demethylation / catalytic activity (in words) (listed as H3K9me3) | fold increase in k cat/K m (compared to H3(1–24)K9me3)
H3(1–24)K9me2: truncated histone tail, 24 first amino acids from the N-terminus of H3, dimethylated lysine 9 | 79±10 | 1.3±0.2 | 2 ± 0.4 min^-1 * μM^-1 * 10^3 | – | – | – | –
H3(1–24)K9me3T11(ph): H3(1–24)K9me3 with phosphorylation of threonine 11 | 0 | 0 | – | no detectable turnover | 0 | – | –
H3(1–24)K9me3: truncated histone tail, 24 first amino acids from the N-terminus of H3, trimethylated lysine 9; control peptide | 57±5 | 12±2 | 12 ± 2 min^-1 * μM^-1 * 10^3 | – | 0.7±0.1 | preference for the H3K9me3 over the H3K9me2; also recorded: an order of magnitude higher activity towards trimethylated H3K9me3 compared to dimethylated H3K9me2 substrates | –
H3(1–24)K4me3K9me3: bis-tri-methylated substrate, trimethylated K4 in combination with H3K9me3 | 42±3 | 24±3 | 24 ± 3 min^-1 * μM^-1 * 10^3 | a small difference in activity between H3(1–24)K9me3 and H3(1–24)K4me3-K9me3 | 1.1±0.2 | – | 2 fold
